From patent publication US20240392262A1, “TRANSPOSASE AND USES THEREOF” (Poseida Therapeutics, Inc., published 2024)

Assays:
Conditions in all cases: tags: 3xFlag, SV40 NLS
PAH2 Right TAL-PBx = molecular target: T1, PAH2 Right TAL-PBx (synthetic construct); assay: cell_activity; right only
T1 chain: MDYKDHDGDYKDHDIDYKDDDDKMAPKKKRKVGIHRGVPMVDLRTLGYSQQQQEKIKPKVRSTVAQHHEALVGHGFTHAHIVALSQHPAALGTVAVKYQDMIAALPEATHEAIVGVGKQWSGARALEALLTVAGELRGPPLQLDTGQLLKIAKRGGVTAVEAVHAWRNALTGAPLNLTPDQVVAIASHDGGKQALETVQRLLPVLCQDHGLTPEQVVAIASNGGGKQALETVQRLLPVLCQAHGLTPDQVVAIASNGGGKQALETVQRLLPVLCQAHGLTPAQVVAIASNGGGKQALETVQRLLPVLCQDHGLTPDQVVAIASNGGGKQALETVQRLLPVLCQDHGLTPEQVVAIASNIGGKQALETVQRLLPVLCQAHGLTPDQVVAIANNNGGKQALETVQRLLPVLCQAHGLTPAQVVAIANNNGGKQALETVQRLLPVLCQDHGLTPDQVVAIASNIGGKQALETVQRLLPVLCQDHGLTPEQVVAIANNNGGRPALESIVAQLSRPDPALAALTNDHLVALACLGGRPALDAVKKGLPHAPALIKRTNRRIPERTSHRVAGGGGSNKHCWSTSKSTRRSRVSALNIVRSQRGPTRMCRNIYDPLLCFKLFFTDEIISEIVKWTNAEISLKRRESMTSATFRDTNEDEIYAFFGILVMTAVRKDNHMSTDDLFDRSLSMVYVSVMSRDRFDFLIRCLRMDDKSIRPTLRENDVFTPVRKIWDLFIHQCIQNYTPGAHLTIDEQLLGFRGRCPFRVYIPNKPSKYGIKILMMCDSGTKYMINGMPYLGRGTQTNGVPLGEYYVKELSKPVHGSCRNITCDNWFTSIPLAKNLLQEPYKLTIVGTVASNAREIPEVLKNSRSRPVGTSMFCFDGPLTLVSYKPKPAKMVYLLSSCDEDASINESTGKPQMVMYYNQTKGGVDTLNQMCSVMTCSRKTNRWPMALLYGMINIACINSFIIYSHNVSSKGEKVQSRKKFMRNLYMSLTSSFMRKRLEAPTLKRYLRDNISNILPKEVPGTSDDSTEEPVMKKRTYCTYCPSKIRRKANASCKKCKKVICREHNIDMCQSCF

PAH2 Left TAL-PBx = molecular target: T2, PAH2 Left TAL-PBx (synthetic construct); assay: cell_activity; left only
T2 chain: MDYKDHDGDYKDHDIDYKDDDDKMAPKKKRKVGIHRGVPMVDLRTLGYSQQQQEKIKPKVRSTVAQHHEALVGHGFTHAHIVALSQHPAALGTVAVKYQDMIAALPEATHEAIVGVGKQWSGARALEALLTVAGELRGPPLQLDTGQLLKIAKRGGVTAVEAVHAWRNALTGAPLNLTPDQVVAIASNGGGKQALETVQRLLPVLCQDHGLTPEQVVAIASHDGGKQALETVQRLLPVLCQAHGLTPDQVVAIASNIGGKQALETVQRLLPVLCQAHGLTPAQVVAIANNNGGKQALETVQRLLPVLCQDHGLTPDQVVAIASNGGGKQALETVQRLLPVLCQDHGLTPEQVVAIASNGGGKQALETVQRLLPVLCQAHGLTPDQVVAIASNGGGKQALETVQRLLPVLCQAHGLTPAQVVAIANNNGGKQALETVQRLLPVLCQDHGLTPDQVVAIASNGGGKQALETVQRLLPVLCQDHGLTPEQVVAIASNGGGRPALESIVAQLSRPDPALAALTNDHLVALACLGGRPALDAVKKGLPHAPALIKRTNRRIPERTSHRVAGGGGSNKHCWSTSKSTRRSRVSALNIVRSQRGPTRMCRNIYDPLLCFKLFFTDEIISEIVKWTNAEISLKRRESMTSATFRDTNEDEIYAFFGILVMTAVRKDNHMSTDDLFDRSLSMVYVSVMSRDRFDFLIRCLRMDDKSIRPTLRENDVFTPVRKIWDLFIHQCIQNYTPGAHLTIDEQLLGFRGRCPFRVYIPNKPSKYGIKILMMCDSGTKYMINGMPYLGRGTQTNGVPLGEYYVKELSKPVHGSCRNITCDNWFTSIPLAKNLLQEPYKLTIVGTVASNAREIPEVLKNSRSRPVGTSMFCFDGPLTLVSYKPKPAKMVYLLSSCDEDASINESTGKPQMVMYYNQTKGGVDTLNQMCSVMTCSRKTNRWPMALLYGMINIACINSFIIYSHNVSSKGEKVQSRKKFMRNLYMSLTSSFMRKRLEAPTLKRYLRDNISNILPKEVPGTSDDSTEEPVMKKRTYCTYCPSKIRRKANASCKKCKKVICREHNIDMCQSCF

PAH3 Right TAL-PBx = molecular target: T3, PAH3 Right TAL-PBx (synthetic construct); assay: cell_activity; right only
T3 chain: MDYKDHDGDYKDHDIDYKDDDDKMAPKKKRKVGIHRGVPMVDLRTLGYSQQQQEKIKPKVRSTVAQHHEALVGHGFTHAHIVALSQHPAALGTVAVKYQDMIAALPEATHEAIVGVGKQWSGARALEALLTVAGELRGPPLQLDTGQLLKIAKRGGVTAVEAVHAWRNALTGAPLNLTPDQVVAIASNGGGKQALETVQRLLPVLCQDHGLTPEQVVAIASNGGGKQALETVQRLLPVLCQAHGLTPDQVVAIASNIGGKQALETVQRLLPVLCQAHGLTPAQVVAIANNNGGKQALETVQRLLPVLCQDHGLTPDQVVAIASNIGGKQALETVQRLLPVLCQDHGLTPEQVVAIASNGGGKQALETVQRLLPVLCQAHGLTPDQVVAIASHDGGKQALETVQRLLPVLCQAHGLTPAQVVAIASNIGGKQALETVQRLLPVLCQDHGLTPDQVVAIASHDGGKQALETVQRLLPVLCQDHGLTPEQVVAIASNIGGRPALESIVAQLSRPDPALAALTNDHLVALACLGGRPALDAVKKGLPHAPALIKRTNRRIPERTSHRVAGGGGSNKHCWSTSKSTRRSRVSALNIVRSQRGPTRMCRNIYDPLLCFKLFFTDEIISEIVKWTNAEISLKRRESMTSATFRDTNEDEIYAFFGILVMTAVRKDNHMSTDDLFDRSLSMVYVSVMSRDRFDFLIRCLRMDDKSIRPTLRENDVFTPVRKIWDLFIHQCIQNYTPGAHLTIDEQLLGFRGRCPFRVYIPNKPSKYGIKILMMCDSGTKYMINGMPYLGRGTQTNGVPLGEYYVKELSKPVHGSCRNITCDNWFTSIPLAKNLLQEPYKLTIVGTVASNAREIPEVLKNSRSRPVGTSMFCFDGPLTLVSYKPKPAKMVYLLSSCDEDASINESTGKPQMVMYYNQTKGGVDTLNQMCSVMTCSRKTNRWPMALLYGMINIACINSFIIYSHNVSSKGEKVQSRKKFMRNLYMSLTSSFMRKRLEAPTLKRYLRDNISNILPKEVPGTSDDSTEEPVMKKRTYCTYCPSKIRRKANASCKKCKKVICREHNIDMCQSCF

PAH3 Left TAL-PBx = molecular target: T4, PAH3 Left TAL-PBx (synthetic construct); assay: cell_activity; left only
T4 chain: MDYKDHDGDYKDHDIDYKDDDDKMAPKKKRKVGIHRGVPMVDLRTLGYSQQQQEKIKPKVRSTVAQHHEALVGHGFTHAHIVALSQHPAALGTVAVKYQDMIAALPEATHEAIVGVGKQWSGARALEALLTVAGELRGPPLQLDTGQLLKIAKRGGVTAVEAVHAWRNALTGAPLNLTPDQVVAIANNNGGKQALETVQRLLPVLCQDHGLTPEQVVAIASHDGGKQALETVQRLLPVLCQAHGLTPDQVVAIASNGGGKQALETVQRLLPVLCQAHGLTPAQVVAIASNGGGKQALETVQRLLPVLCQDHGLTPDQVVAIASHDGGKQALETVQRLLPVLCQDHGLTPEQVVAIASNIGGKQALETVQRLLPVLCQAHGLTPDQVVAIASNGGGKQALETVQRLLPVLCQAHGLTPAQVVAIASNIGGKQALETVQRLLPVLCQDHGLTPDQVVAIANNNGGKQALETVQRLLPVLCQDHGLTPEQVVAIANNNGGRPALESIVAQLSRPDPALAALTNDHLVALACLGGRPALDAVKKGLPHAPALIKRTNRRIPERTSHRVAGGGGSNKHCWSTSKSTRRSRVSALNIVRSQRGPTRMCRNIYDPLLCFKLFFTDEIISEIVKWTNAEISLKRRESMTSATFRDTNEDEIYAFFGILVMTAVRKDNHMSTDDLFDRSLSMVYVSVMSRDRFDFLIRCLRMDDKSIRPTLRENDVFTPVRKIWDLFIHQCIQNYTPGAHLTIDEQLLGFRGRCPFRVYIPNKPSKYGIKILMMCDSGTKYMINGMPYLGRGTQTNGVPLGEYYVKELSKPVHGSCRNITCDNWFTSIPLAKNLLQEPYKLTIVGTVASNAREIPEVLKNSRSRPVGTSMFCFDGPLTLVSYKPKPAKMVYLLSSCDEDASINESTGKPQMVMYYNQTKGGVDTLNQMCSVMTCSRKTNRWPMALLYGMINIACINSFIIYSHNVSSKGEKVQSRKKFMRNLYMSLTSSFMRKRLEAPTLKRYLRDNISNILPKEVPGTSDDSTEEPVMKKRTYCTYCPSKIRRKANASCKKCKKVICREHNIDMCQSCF

B1: PAH2 target (dsDNA)
DNA 1: TTCAGTTTGTTATATATGTGTCTATTAAGTTAGATTGTGAGCTCCTAAAAGA
DNA 2: TCTTTTAGGAGCTCACAATCTAACTTAATAGACACATATATAACAAACTGAA
B1 showed an activity (PAH2 Right TAL-PBx) of 7 % GFP+ and an activity (PAH2 Left TAL-PBx) of 8.8 % GFP+.

B2: PAH3 target (dsDNA)
DNA 1: TGCTTCATAGGGTAGTTCTAAAGATTAAATCACTTAATGCATGTGATCTAAA
DNA 2: TTTAGATCACATGCATTAAGTGATTTAATCTTTAGAACTACCCTATGAAGCA
B2 gave an activity (PAH3 Right TAL-PBx) of 5.7 % GFP+ and an activity (PAH3 Left TAL-PBx) of 6.8 % GFP+.
